Source: patent publication US20030100069A1 (Human Genome Sciences, published 2003)

T1: endogenous TRAF2 (of HeLa and 293 cells) (human, UniProt Q12933 2-501)
T1 construct: 293 is called a human embryonic kidney cell line; HeLa is a human line; Detected by western blot with anti-TRAF2 polyclonal antibodies; also called TNF receptor-associated factor 2
T1 sequence (looked up): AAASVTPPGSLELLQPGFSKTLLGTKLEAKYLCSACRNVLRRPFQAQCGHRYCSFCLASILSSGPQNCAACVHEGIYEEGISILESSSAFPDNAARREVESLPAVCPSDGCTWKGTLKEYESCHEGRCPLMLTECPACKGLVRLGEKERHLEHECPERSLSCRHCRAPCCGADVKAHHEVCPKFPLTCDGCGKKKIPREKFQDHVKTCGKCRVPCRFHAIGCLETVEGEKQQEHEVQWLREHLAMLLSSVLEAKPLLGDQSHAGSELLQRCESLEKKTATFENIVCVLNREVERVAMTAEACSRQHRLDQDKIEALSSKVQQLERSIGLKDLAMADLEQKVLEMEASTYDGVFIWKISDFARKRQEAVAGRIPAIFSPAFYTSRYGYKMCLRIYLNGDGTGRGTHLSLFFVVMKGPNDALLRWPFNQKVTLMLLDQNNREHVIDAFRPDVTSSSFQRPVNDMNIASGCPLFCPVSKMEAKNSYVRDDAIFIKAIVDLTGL

T2: F-TR8-615 (FLAG epitope-tagged TR8, residues 33-615 of FIGS. 1A-C) (human) (UniProt Q9Y6Q6)
T2 sequence: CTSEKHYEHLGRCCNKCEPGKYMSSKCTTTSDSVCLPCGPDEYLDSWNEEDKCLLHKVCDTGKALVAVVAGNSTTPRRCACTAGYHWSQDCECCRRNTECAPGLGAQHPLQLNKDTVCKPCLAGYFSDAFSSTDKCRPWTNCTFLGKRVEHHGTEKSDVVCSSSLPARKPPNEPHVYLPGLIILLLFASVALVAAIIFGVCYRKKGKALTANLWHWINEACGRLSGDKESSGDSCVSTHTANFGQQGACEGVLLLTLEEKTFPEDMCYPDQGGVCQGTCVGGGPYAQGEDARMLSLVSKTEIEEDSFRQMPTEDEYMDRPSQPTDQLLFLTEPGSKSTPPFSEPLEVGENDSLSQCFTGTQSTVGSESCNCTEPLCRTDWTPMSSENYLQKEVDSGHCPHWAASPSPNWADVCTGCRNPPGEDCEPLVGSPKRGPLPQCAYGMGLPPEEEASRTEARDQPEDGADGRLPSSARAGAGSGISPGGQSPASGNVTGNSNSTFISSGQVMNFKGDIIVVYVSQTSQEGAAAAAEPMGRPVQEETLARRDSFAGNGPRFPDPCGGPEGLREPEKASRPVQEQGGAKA


molecular target: T1, endogenous TRAF2 (of HeLa and 293 cells); experiment: anti-FLAG co-immunoprecipitation from HeLa and 293 lysates, anti-TRAF2 western blot
Method: Immunoprecipitations and JNK Kinase Assays—From transient transfected cells, lysates were prepared and immunoprecipitated using anti-FLAG-conjugated agarose or anti-JNK1 and protein A/G sepharose for 1 hr. Where indicated, ³⁵S-labeled proteins were added to the lysate prior to immunoprecipitation. Beads were collected by centrifugation and washed four times in lysis buffer followed by two washes in kinase buffer (20 mM TRIS, pH 8, 50 mM NaCl, and 1 mM DTT). For coimmunoprecipation, proteins were eluted in SDS-sample buffer, boiled, and subjected to SDS-PAGE. Analysis of JNK activity was performed using exogenously added GST-Jun(1-79) as a substrate as previously described (Haridas et al., J. Immunol. 160:3152-3162 (1998)). Quantitation of JNK activity and ³⁵S-labeled TRAF binding was analyzed using a PhosphoImager and Imagequant Software (Molecular Dynamics, Sunnyvale, Calif.).
TRAF2, TRAF5, and TRAF6 Interact with the C-Terminus of TR8—Since most of the TNFR family members utilize TRAFs as signaling components and that TR8 contains putative TRAF binding domains, we examined the ability for TR8 to interact with various TRAFs. […] After 24-36 hr, cell lysates were prepared and epitope-tagged receptors were immunoprecipitated with anti-FLAG conjugated-agarose. Coprecipitation of endogenous TRAF2 was detected by western blotting with anti-TRAF2 polyclonal antibodies. […] Membranes were also probed with anti-FLAG to insure precipitation of epitope-tagged receptors (data not shown).

Sequence of in vitro translated 35S-labeled TRAF5 (O00463 whole entry): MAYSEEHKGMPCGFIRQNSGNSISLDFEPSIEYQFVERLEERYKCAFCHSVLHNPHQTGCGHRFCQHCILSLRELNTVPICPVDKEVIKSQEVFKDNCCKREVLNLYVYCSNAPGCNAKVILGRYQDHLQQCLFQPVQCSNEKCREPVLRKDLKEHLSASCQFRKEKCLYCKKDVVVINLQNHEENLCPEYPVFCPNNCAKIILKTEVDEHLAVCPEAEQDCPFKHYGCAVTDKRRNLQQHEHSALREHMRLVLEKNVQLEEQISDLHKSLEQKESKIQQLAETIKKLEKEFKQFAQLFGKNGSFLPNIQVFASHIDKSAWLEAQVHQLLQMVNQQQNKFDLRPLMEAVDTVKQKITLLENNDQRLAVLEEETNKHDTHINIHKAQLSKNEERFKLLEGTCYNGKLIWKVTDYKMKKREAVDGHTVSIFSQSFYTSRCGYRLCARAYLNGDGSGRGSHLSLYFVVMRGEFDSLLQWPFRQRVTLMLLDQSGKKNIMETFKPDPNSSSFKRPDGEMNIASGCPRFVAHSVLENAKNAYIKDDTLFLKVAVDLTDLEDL

binding result | Molecule
no binding | F-TR8-427 (FLAG-tagged TR8 C-terminal deletion lacking 188 amino acids) (receptor, not shown: small tags and cut ends, The C-terminal limit is inferred from the construct name and the stated deletion of 188 residues; also called F-TR8 deletion mutant) CTSEKHYEHLGRCCNKCEPGKYMSSKCTTTSDSVCLPCGPDEYLDSWNEEDKCLLHKVCDTGKALVAVVAGNSTTPRRCACTAGYHWSQDCECCRRNTECAPGLGAQHPLQLNKDTVCKPCLAGYFSDAFSSTDKCRPWTNCTFLGKRVEHHGTEKSDVVCSSSLPARKPPNEPHVYLPGLIILLLFASVALVAAIIFGVCYRKKGKALTANLWHWINEACGRLSGDKESSGDSCVSTHTANFGQQGACEGVLLLTLEEKTFPEDMCYPDQGGVCQGTCVGGGPYAQGEDARMLSLVSKTEIEEDSFRQMPTEDEYMDRPSQPTDQLLFLTEPGSKSTPPFSEPLEVGENDSLSQCFTGTQSTVGSESCNCTEPLCRTDWTPMSSENYLQKEVDS
no binding | F-TR8-330 (FLAG-tagged TR8 C-terminal deletion lacking 285 amino acids) (receptor, not shown: small tags and cut ends, The C-terminal limit is inferred from the construct name and the stated deletion of 285 residues; also called F-TR8 deletion mutant) CTSEKHYEHLGRCCNKCEPGKYMSSKCTTTSDSVCLPCGPDEYLDSWNEEDKCLLHKVCDTGKALVAVVAGNSTTPRRCACTAGYHWSQDCECCRRNTECAPGLGAQHPLQLNKDTVCKPCLAGYFSDAFSSTDKCRPWTNCTFLGKRVEHHGTEKSDVVCSSSLPARKPPNEPHVYLPGLIILLLFASVALVAAIIFGVCYRKKGKALTANLWHWINEACGRLSGDKESSGDSCVSTHTANFGQQGACEGVLLLTLEEKTFPEDMCYPDQGGVCQGTCVGGGPYAQGEDARMLSLVS
no binding | F-TR8-530 (FLAG-tagged TR8 C-terminal deletion lacking 85 amino acids) (receptor, not shown: small tags and cut ends, also called F-TR8 deletion mutant) CTSEKHYEHLGRCCNKCEPGKYMSSKCTTTSDSVCLPCGPDEYLDSWNEEDKCLLHKVCDTGKALVAVVAGNSTTPRRCACTAGYHWSQDCECCRRNTECAPGLGAQHPLQLNKDTVCKPCLAGYFSDAFSSTDKCRPWTNCTFLGKRVEHHGTEKSDVVCSSSLPARKPPNEPHVYLPGLIILLLFASVALVAAIIFGVCYRKKGKALTANLWHWINEACGRLSGDKESSGDSCVSTHTANFGQQGACEGVLLLTLEEKTFPEDMCYPDQGGVCQGTCVGGGPYAQGEDARMLSLVSKTEIEEDSFRQMPTEDEYMDRPSQPTDQLLFLTEPGSKSTPPFSEPLEVGENDSLSQCFTGTQSTVGSESCNCTEPLCRTDWTPMSSENYLQKEVDSGHCPHWAASPSPNWADVCTGCRNPPGEDCEPLVGSPKRGPLPQCAYGMGLPPEEEASRTEARDQPEDGADGRLPSSARAGAGSGISPGGQSPASGNVTGNSNS

molecular target: T2, F-TR8-615 (FLAG epitope-tagged TR8, residues 33-615 of FIGS. 1A-C) (human); experiment: anti-FLAG co-immunoprecipitation of 35S-labeled TRAF from 293 lysates, PhosphorImager quantitation

fold increase in binding relative to vector transfected cells | Molecule
11 fold | in vitro translated 35S-labeled TRAF5
5 fold | in vitro translated 35S-labeled TRAF6
145 fold | in vitro translated 35S-labeled TRAF2 (protein, UniProt Q12933 2-501, looked up, species assumed, 35S-labeled) TNF receptor-associated factor 2: AAASVTPPGSLELLQPGFSKTLLGTKLEAKYLCSACRNVLRRPFQAQCGHRYCSFCLASILSSGPQNCAACVHEGIYEEGISILESSSAFPDNAARREVESLPAVCPSDGCTWKGTLKEYESCHEGRCPLMLTECPACKGLVRLGEKERHLEHECPERSLSCRHCRAPCCGADVKAHHEVCPKFPLTCDGCGKKKIPREKFQDHVKTCGKCRVPCRFHAIGCLETVEGEKQQEHEVQWLREHLAMLLSSVLEAKPLLGDQSHAGSELLQRCESLEKKTATFENIVCVLNREVERVAMTAEACSRQHRLDQDKIEALSSKVQQLERSIGLKDLAMADLEQKVLEMEASTYDGVFIWKISDFARKRQEAVAGRIPAIFSPAFYTSRYGYKMCLRIYLNGDGTGRGTHLSLFFVVMKGPNDALLRWPFNQKVTLMLLDQNNREHVIDAFRPDVTSSSFQRPVNDMNIASGCPLFCPVSKMEAKNSYVRDDAIFIKAIVDLTGL
